The target in this experiment is Recombinant hG-CSFR (granulocyte colony stimulating factor receptor) (human) (UniProt Q99062). In words: SPR. In general terms: In SPR one partner is held on a chip, and binding of the other changes the refractive index at the surface.
Chain of UniProt Q99062 (Q99062 25-836): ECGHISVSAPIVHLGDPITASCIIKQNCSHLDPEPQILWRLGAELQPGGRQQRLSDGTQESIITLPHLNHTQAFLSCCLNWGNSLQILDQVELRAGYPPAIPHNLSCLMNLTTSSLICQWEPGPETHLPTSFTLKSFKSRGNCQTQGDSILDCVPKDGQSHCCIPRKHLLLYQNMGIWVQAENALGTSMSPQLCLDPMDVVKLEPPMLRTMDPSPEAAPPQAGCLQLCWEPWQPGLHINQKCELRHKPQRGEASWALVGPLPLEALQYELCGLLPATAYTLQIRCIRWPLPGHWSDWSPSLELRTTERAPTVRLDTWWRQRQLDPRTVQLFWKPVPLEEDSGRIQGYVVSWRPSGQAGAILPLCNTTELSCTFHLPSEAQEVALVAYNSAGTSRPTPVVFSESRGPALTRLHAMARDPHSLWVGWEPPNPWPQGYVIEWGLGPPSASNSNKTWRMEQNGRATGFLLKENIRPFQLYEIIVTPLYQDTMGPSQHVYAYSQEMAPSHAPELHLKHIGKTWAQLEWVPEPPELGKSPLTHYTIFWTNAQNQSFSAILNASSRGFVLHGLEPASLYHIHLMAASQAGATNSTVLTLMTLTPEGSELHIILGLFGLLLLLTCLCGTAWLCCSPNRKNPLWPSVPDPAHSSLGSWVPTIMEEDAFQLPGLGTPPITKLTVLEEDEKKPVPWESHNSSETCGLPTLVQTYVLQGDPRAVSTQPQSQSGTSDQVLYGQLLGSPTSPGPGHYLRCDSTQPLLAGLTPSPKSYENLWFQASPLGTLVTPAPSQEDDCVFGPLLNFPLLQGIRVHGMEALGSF

By Kd is commonly meant a measure of binding affinity in units of concentration. Regarding “pegfilgrastim (Neulasta), reference product (from UniProt P09919-2 31-204) (ligand)”, the Kd stood at 0.097 nM.

The record behind these values is paper PMC11315836.
